Read-outs that look alike come from different tables or passages of the source. Each block holds one substance with its values, some of them ahead of it.
Legend:
CD28 (human) [1] = molecular target: CD28 (human) (UniProt P10747); experiment: flow cytometry, Jurkat cells (CD28)
CTLA4 (human) = experiment: flow cytometry, CHO cells stably expressing CTLA4
PD-L1 (human) [2] = experiment: flow cytometry, CHO cells stably expressing PD-L1
CD80 (human) = CD80 (human) (UniProt P33681); experiment: flow cytometry, cells expressing the partner
CD80 (human), sequence (P33681 35-288): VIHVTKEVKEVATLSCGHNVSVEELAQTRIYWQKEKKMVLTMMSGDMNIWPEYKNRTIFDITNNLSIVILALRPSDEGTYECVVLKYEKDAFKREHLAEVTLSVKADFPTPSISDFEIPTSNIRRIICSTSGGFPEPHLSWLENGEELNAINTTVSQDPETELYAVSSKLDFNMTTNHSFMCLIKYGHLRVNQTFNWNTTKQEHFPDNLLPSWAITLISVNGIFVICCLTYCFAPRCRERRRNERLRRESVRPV

CD86 (human) = CD86 (human) (UniProt P42081); experiment: flow cytometry, cells expressing the partner
[3] = molecular target: CD28, full-length, expressed on transfected cells (Homo sapiens (Human)) (UniProt P10747); experiment: flow cytometry, cells expressing target
[4] = molecular target: CTLA-4 (Homo sapiens (Human)) (UniProt P16410); experiment: flow cytometry, transfected cells
CTLA-4 (Homo sapiens (Human)), sequence (P16410 36-223): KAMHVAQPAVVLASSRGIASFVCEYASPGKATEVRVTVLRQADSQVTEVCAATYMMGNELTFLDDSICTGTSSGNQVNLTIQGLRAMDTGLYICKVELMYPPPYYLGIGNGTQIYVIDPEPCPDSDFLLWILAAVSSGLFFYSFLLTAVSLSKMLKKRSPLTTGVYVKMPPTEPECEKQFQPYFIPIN

[5] = molecular target: ICOS (Homo sapiens (Human)) (UniProt Q9Y6W8); experiment: flow cytometry, transfected cells
ICOS (Homo sapiens (Human)), sequence (Q9Y6W8 21-199 limits assumed): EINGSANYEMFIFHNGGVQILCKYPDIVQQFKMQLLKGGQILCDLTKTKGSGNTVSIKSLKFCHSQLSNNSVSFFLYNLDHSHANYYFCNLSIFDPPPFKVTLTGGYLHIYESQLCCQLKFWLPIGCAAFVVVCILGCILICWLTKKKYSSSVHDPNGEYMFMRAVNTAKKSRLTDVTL

CD28 (human) [6] = molecular target: CD28 (human) (UniProt P10747); experiment: flow cytometry, transfected cells
PD-L1 (human) [7] = experiment: flow cytometry, cells expressing PD-L1
CD28 (human) [8] = molecular target: CD28 (human) (UniProt P10747); experiment: flow cytometry, Jurkat cells (CD28); remark: listed apart in the source
PD-L1 (human) [9] = experiment: flow cytometry, CHO cells expressing PD-L1
CTLA-4 (human) = experiment: flow cytometry, CHO cells expressing CTLA4
CTLA-4 (human), sequence (chain, as listed by the source): as the sequence (P16410 36-223) above

WT CD80 ECD-Fc (R&D) (Fc fusion), sequence (chain): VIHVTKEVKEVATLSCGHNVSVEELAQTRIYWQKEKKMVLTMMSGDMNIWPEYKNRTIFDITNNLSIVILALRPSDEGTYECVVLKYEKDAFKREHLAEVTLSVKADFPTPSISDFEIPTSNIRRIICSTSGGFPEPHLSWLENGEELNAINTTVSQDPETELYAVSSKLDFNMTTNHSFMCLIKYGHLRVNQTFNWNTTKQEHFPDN
PD-L1 (human), sequence (chain, as listed by the source): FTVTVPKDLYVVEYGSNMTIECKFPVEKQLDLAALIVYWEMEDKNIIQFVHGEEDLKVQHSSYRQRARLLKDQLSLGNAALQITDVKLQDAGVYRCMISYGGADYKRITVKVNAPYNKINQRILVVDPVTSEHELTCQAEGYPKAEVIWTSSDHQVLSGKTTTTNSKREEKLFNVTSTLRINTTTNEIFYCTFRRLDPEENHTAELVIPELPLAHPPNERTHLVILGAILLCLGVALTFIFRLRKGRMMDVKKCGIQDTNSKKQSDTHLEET
CTLA4 (human), sequence (chain, as listed by the source): as the sequence (P16410 36-223) above
WT CD80 (Fc fusion), sequence (chain): as the sequence (chain) above

Substance: CD80 variant A26E/E35D/M43I/M47L/L85Q/K86E/R94W IgV-Fc (Fc fusion)
MFI at 33.3 nM (CD28 (human) [1]): 314 MFI | MFI at 33.3 nM (CTLA4 (human)): 2950 MFI

Substance: CD80 variant E35D/D46V/M47I/A71G/F92V IgV-Fc (Fc fusion)
MFI at 33.3 nM (CD28 (human) [1]): 7540 MFI

Substance: CD80 variant E35D/M47V/T62A/A71G/V83A/Y87H/L97M IgV-Fc (Fc fusion)
MFI at 33.3 nM (CD28 (human) [1]): 305 MFI | MFI at 33.3 nM (CTLA4 (human)): 18100 MFI | MFI at 33.3 nM (PD-L1 (human) [2]): 77500 MFI

Substance: CD80 variant Q27H/E35D/M47L/L85Q/R94Q/E95K IgV-Fc (Fc fusion)
MFI at 33.3 nM (CD28 (human) [1]): 282 MFI | MFI at 33.3 nM (PD-L1 (human) [2]): 36100 MFI

Substance: CD80 variant Q33L/E35D/M47V IgV-Fc (Fc fusion)
MFI at 33.3 nM (CTLA4 (human)): 47600 MFI | MFI at 33.3 nM (PD-L1 (human) [2]): 47900 MFI

Substance: CD80 variant S15P/Q33L/E35D/M47L/L85Q IgV-Fc (Fc fusion)
MFI at 33.3 nM (CD28 (human) [1]): 266 MFI

Substance: ICOSL ECD-Fc N30D/N52S/L67P/Q100K/D217G/R221K/T225S (Fc fusion)
MFI [3]: 1990 MFI

Substance: ICOSL ECD-Fc N52H/N57Y/Q100R/F172S (Fc fusion)
MFI [4]: 606000 MFI | MFI [5]: 238000 MFI

Substance: ICOSL ECD-Fc N52S/E90A (Fc fusion)
MFI [3]: 31100 MFI

Substance: ICOSL-Fc N52D/N57A/Q100A (Fc fusion)
MFI (CD28 (human) [6]): 138000 MFI | MFI [4]: 340000 MFI

Substance: ICOSL-Fc N52G/Q100A (Fc fusion)
MFI (CD28 (human) [6]): 98700 MFI | MFI [5]: 303000 MFI

Substance: ICOSL-Fc N52R/N57F/Q100P (Fc fusion)
MFI (CD28 (human) [6]): 154000 MFI | MFI [4]: 504000 MFI

Substance: ICOSL-Fc N52R/N57W (Fc fusion)
MFI (CD28 (human) [6]): 137000 MFI | MFI [4]: 318000 MFI

Substance: ICOSL-Fc N52R/N57Y/Q100P (Fc fusion)
MFI (CD28 (human) [6]): 133000 MFI | MFI [4]: 502000 MFI

Substance: ICOSL-Fc N52S/N57A/Q100A (Fc fusion)
MFI (CD28 (human) [6]): 98200 MFI | MFI [4]: 233000 MFI

Substance: ICOSL-Fc N52T/N57K/Q100P (Fc fusion)
MFI (CD28 (human) [6]): 88700 MFI | MFI [4]: 78300 MFI

Substance: WT CD80 ECD-Fc (R&D) (Fc fusion)
MFI at 33.3 nM (CD28 (human) [1]): 7630 MFI | MFI at 33.3 nM (CD28 (human) [8]): 18000 MFI | MFI at 33.3 nM (PD-L1 (human) [9]): 11900 MFI | MFI at 33.3 nM (PD-L1 (human) [2]): 7940 MFI

Substance: variant CD80 A26E/E35D/M47L/A71G (Fc fusion)
Fold change to WT CD80 (CD28 (human) [8]): 0.12 fold | MFI at 33.3 nM (CD28 (human) [8]): 2160 MFI | MFI at 33.3 nM (CTLA-4 (human)): 341000 MFI | Fold change to WT CD80 (PD-L1 (human) [9]): 4.49 fold | MFI at 33.3 nM (PD-L1 (human) [9]): 53400 MFI

Now from value to substance:

MFI at 33.3 nM (CTLA4 (human)): 311000 MFI | MFI at 33.3 nM (PD-L1 (human) [2]): 67100 MFI
Substance: CD80 variant E24D/Q33L/E35D/M47V/K54R/L85Q IgV-Fc (Fc fusion)

MFI at 33.3 nM (CTLA4 (human)): 8660 MFI | MFI at 33.3 nM (PD-L1 (human) [2]): 36900 MFI
Substance: CD80 variant E35D/M47I/K54R/L85E IgV-Fc (Fc fusion)

MFI at 33.3 nM (CD28 (human) [1]): 300 MFI | MFI at 33.3 nM (CTLA4 (human)): 226000 MFI
Substance: CD80 variant E35D/M47L/A71G/L97Q IgV-Fc (Fc fusion)

MFI at 33.3 nM (CTLA4 (human)): 28900 MFI | MFI at 33.3 nM (PD-L1 (human) [2]): 62100 MFI
Substance: CD80 variant Q33L/E35D/M47V/T79A IgV-Fc (Fc fusion)

MFI at 33.3 nM (CD28 (human) [1]): 303 MFI | MFI at 33.3 nM (CTLA4 (human)): 3560 MFI
Substance: CD80 variant Q33R/E35D/D46E/M47I IgV-Fc (Fc fusion)

MFI at 33.3 nM (CD28 (human) [1]): 258 MFI | MFI at 33.3 nM (PD-L1 (human) [2]): 44400 MFI
Substance: CD80 variant Q33R/E35D/K37E/M47V/L85Q IgV-Fc (Fc fusion)

MFI (CD80 (human)): 2110 MFI | MFI (CD86 (human)): 665000 MFI
Substance: CTLA-4 ECD-Fc L98R/N110K (Fc fusion)

MFI [3]: 54 MFI
Substance: ICOSL ECD-Fc N52S/T113E (Fc fusion)

MFI (CD28 (human) [6]): 95700 MFI | MFI [4]: 333000 MFI
Substance: ICOSL-Fc N52D/Q100S (Fc fusion)

MFI (CD28 (human) [6]): 5720 MFI | MFI [4]: 10200 MFI
Substance: ICOSL-Fc N52G/N57P/Q100D (Fc fusion)

MFI (CD28 (human) [6]): 142000 MFI | MFI [5]: 214000 MFI
Substance: ICOSL-Fc N52H/N57Y/Q100K (Fc fusion)

MFI (CD28 (human) [6]): 21000 MFI
Substance: ICOSL-Fc N52P/N57P (Fc fusion)

MFI (CD28 (human) [6]): 161000 MFI | MFI [4]: 233000 MFI
Substance: ICOSL-Fc N52R/N57F/Q100N (Fc fusion)

MFI (CD28 (human) [6]): 185000 MFI | MFI [4]: 464000 MFI
Substance: ICOSL-Fc N52R/N57F/Q100R (Fc fusion)

MFI (CD28 (human) [6]): 71900 MFI | MFI [4]: 79400 MFI
Substance: ICOSL-Fc N52S/N57L/Q100G (Fc fusion)

MFI (CD28 (human) [6]): 161000 MFI | MFI [4]: 341000 MFI
Substance: ICOSL-Fc N52T/N57Y/Q100A (Fc fusion)

MFI (CD28 (human) [6]): 132000 MFI | MFI [4]: 252000 MFI
Substance: ICOSL-Fc N52V/N57L/Q100A (Fc fusion)

MFI (PD-L1 (human) [7]): 70 MFI
Substance: WT CD80 (Fc fusion)

— patent US20250163127A1
